Like-named read-outs stand apart in the source and are kept apart here.
Columns and labels:
Test in all cases: EMSA
PARP1 [1] = biological target: T1, PARP1 (Homo sapiens, UniProt P09874 1-1014)
PARP1 [2] = biological target: T1, PARP1; remark: listed apart in the source
PARP1 [3] = biological target: T1, PARP1; remark: listed apart in the source
PARP1 [4] = biological target: T1, PARP1; remark: listed apart in the source

T1 sequence (P09874 whole entry): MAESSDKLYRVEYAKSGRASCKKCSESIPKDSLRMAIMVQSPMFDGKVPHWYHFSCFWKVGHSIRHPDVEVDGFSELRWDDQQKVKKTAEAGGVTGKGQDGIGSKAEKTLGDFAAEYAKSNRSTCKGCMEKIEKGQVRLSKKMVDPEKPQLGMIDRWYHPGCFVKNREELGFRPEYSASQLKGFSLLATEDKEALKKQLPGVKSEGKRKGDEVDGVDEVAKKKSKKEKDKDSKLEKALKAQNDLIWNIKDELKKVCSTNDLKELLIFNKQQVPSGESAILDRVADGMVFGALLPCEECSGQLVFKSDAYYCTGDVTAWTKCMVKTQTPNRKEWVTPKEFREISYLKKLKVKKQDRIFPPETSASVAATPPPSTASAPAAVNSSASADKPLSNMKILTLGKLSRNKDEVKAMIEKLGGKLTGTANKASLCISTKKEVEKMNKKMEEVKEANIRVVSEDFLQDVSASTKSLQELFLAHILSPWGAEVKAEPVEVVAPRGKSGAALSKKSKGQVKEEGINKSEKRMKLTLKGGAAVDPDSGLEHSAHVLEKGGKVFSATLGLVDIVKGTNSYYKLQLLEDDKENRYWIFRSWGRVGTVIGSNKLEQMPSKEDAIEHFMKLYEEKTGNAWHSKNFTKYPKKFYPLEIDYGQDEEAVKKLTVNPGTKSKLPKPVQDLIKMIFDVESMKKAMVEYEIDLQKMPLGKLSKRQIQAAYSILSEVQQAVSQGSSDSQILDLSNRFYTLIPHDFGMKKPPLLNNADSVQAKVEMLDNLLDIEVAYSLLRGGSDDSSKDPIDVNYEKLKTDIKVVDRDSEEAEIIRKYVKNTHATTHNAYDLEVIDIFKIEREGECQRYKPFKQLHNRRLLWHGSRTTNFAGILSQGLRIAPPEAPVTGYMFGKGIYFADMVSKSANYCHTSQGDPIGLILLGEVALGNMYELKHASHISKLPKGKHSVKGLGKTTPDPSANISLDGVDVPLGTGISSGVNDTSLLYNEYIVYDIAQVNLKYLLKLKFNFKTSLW

B1: ssDNA JYM3702 (ssDNA)
DNA: GGGTGAACCTGCAGGTGGGCGGCTGCTCATCGTAGGTTAGTTGGTAGAATTCGGCAGCGTC
Q: Does B1 bind (PARP1 [1])?
A: binds

B2: D-loop (JYM3702 + JYM3703 + JYM3705) (structured_DNA)
DNA 1: B1 DNA
DNA 2: GACGCTGCCGAATTCTACCAGTGCCTTGCTAGGACATCTTTGCCCACCTGCAGGTTCACCC
DNA 3: AAAGATGTCCTAGCAAGGCAC
Q: Does B2 bind (PARP1 [2])?
A: binds

B3: R-loop (JYM3702 + JYM3703 + JYM3704) (mixed)
DNA 1: B1 DNA
DNA 2: B2 DNA 2
RNA: AAAGAUGUCCUAGCAAGGCAC
modifications: RNA strand 3
Q: Does B3 bind (PARP1 [3])?
A: binds

B4: ssRNA JYM3704 (ssRNA)
RNA: AAAGAUGUCCUAGCAAGGCAC
Q: Does B4 bind (PARP1 [4])?
A: no binding

— publication PMC10018367
